Source: patent US20140087995A1 (published 2014)
Numbered stars: 1 amine (or outer) side, 2 acyl side, 3 side chain; on linkers, the order of the positions; unused ones are H or OH. Bridge positions count the residues as written; N and C are the ends. Side chains are listed from the residue outwards. Ends that are not written are not given here. * marks the point of attachment. C20 diacid = O=C(O)CCCCCCCCCCCCCCCCCCC(=O)*; γGlu = O=C(O)[C@H](CCC(=O)[*:2])N[*:1]

T1: rat calcitonin receptor (rat, UniProt P32214 25-516)
T1 construct: whole, on cells; also called rCTR; rat calcitonin (a) receptor
T1 sequence (looked up): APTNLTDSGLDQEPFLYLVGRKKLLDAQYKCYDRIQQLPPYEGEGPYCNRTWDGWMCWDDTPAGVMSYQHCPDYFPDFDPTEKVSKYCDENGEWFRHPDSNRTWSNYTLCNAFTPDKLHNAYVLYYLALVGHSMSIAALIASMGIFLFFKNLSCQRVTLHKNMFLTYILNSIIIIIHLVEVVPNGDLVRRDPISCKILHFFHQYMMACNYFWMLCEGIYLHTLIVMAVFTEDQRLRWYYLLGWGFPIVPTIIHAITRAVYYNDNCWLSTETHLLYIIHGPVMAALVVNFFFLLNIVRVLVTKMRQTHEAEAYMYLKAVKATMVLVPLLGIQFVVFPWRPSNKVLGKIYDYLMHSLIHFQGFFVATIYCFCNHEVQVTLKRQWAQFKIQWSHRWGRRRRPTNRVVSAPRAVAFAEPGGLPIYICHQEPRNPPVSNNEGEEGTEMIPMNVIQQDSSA

T2: human calcitonin receptor (human, UniProt P30988 25-474)
T2 construct: whole, on cells; also called hCTR; hCT
T2 sequence (looked up): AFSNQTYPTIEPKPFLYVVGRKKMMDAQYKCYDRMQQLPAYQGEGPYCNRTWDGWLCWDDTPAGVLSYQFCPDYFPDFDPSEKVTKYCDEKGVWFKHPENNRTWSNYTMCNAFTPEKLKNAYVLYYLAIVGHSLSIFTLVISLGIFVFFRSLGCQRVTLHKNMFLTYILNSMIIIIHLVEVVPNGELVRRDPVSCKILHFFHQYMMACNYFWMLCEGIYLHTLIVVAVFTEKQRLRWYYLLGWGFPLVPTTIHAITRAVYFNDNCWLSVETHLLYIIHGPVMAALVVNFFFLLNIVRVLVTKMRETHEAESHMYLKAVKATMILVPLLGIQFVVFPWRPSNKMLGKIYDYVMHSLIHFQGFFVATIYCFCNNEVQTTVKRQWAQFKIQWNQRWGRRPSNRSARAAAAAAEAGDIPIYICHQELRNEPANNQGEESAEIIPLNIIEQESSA

T3: rat amylin receptor (rat calcitonin receptor + rat RAMP 3) (rat, UniProt P32214 25-516; Q9JJ73 23-147)
T3 construct: whole, on cells; also called rAmylin-R; rat amylin 3(a) receptor
T3 sequence (looked up) 1: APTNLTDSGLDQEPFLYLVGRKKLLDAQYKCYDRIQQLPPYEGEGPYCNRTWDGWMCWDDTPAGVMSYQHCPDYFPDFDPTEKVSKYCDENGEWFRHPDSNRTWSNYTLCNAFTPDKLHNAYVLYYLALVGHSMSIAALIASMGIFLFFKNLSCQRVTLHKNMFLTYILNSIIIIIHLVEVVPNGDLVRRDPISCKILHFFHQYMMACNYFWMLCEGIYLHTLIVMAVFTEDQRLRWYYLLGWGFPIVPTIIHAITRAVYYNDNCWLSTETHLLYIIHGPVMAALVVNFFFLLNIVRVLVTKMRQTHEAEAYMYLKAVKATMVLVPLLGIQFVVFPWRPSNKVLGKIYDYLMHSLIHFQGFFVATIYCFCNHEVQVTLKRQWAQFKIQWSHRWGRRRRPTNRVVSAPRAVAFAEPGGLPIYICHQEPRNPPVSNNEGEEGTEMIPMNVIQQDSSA
T3 sequence (looked up) 2: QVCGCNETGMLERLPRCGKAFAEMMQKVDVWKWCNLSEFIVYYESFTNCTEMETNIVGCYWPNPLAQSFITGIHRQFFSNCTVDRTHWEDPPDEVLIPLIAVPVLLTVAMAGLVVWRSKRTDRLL


Experiments:
rat calcitonin receptor [1] = molecular target: T1, rat calcitonin receptor; test: ratio of binding IC50s: rat calcitonin receptor over rat amylin receptor (reference)
[2] = molecular target: T2, human calcitonin receptor; test: ratio of binding IC50s: human calcitonin receptor over human amylin receptor (reference)
Summary of the method: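 Competition binding by SPA uses membrane preparations (35 ng/μL final) in pH 7.4 Hepes buffer with 1 mM CaCl2 and 5 mM MgCl₂. Incubation lasts 120 min at 25° C, and IC₅₀ comes from one-site fitting.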

rat calcitonin receptor [3] = molecular target: T1, rat calcitonin receptor; test: SPA competition with 125I-calcitonin, membranes of BHK cells with rat calcitonin receptor (Assay VIII)
[4] = molecular target: T3, rat amylin receptor (rat calcitonin …); test: SPA competition with 125I-rat amylin, membranes of BHK cells with rat calcitonin receptor + rat RAMP3 (Assay VI)

Ratio rCT/rAmylin binding (rat calcitonin receptor [1])	Ratio hCT/hAmylin binding [2]	IC50 (rat calcitonin receptor [3])	IC50 [4]	Binder
122	45.2	26.3 nM	0.215 nM	K([γGlu-C20 diacid])CNTATCATQRLANFLRHSSPNFGAIPSSTNVGSHTY-NH2 (disulfide 2-7; N-terminus assumed; SMILES CC[C@H](C)[C@H](NC(=O)[C@H](C)NC(=O)CNC(=O)[C@H](Cc1ccccc1)NC(=O)[C@H](CC(N)=O)NC(=O)[C@@H]1CCCN1C(=O)[C@H](CO)NC(=O)[C@H](CO)NC(=O)[C@H](Cc1c[nH]cn1)NC(=O)[C@H](CCCNC(=N)N)NC(=O)[C@H](CC(C)C)NC(=O)[C@H](Cc1ccccc1)NC(=O)[C@H](CC(N)=O)NC(=O)[C@H](C)NC(=O)[C@H](CC(C)C)NC(=O)[C@H](CCCNC(=N)N)NC(=O)[C@H](CCC(N)=O)NC(=O)[C@@H](NC(=O)[C@H](C)NC(=O)[C@@H]1CSSC[C@H](NC(=O)[C@@H](N)CCCCNC(=O)CC[C@H](NC(=O)CCCCCCCCCCCCCCCCCCC(=O)O)C(=O)O)C(=O)N[C@@H](CC(N)=O)C(=O)N[C@@H]([C@@H](C)O)C(=O)N[C@@H](C)C(=O)N[C@@H]([C@@H](C)O)C(=O)N1)[C@@H](C)O)C(=O)N1CCC[C@H]1C(=O)N[C@@H](CO)C(=O)N[C@@H](CO)C(=O)N[C@H](C(=O)N[C@@H](CC(N)=O)C(=O)N[C@H](C(=O)NCC(=O)N[C@@H](CO)C(=O)N[C@@H](Cc1c[nH]cn1)C(=O)N[C@H](C(=O)N[C@@H](Cc1ccc(O)cc1)C(N)=O)[C@@H](C)O)C(C)C)[C@@H](C)O, synthetic analogue of human amylin; also called compound 60) [N^ε1-[(4S)-4-carboxy-4-(19-carboxynonadecanoylamino)butanoyl]-[Arg17,Pro21,Pro27,His35]-h-amylin]
119	37.5	62 nM	0.523 nM	K([γGlu-C20 diacid])CNTATCATQRLAEFLRHSSPNFGAIPSSTNVGSRTY-NH2 (disulfide 2-7; N-terminus assumed; SMILES CC[C@H](C)[C@H](NC(=O)[C@H](C)NC(=O)CNC(=O)[C@H](Cc1ccccc1)NC(=O)[C@H](CC(N)=O)NC(=O)[C@@H]1CCCN1C(=O)[C@H](CO)NC(=O)[C@H](CO)NC(=O)[C@H](Cc1c[nH]cn1)NC(=O)[C@H](CCCNC(=N)N)NC(=O)[C@H](CC(C)C)NC(=O)[C@H](Cc1ccccc1)NC(=O)[C@H](CCC(=O)O)NC(=O)[C@H](C)NC(=O)[C@H](CC(C)C)NC(=O)[C@H](CCCNC(=N)N)NC(=O)[C@H](CCC(N)=O)NC(=O)[C@@H](NC(=O)[C@H](C)NC(=O)[C@@H]1CSSC[C@H](NC(=O)[C@@H](N)CCCCNC(=O)CC[C@H](NC(=O)CCCCCCCCCCCCCCCCCCC(=O)O)C(=O)O)C(=O)N[C@@H](CC(N)=O)C(=O)N[C@@H]([C@@H](C)O)C(=O)N[C@@H](C)C(=O)N[C@@H]([C@@H](C)O)C(=O)N1)[C@@H](C)O)C(=O)N1CCC[C@H]1C(=O)N[C@@H](CO)C(=O)N[C@@H](CO)C(=O)N[C@H](C(=O)N[C@@H](CC(N)=O)C(=O)N[C@H](C(=O)NCC(=O)N[C@@H](CO)C(=O)N[C@@H](CCCNC(=N)N)C(=O)N[C@H](C(=O)N[C@@H](Cc1ccc(O)cc1)C(N)=O)[C@@H](C)O)C(C)C)[C@@H](C)O, synthetic analogue of human amylin; also called compound 51)

The remaining lines, values behind:

Binder	Ratio rCT/rAmylin binding (rat calcitonin receptor [1])	Ratio hCT/hAmylin binding [2]	IC50 (rat calcitonin receptor [3])	IC50 [4]
K([γGlu-C20 diacid])CNTATCATQRLARFLRHSSPNFGAIPSSTNVGSNTY-NH2 (disulfide 2-7; N-terminus assumed; SMILES CC[C@H](C)[C@H](NC(=O)[C@H](C)NC(=O)CNC(=O)[C@H](Cc1ccccc1)NC(=O)[C@H](CC(N)=O)NC(=O)[C@@H]1CCCN1C(=O)[C@H](CO)NC(=O)[C@H](CO)NC(=O)[C@H](Cc1c[nH]cn1)NC(=O)[C@H](CCCNC(=N)N)NC(=O)[C@H](CC(C)C)NC(=O)[C@H](Cc1ccccc1)NC(=O)[C@H](CCCNC(=N)N)NC(=O)[C@H](C)NC(=O)[C@H](CC(C)C)NC(=O)[C@H](CCCNC(=N)N)NC(=O)[C@H](CCC(N)=O)NC(=O)[C@@H](NC(=O)[C@H](C)NC(=O)[C@@H]1CSSC[C@H](NC(=O)[C@@H](N)CCCCNC(=O)CC[C@H](NC(=O)CCCCCCCCCCCCCCCCCCC(=O)O)C(=O)O)C(=O)N[C@@H](CC(N)=O)C(=O)N[C@@H]([C@@H](C)O)C(=O)N[C@@H](C)C(=O)N[C@@H]([C@@H](C)O)C(=O)N1)[C@@H](C)O)C(=O)N1CCC[C@H]1C(=O)N[C@@H](CO)C(=O)N[C@@H](CO)C(=O)N[C@H](C(=O)N[C@@H](CC(N)=O)C(=O)N[C@H](C(=O)NCC(=O)N[C@@H](CO)C(=O)N[C@@H](CC(N)=O)C(=O)N[C@H](C(=O)N[C@@H](Cc1ccc(O)cc1)C(N)=O)[C@@H](C)O)C(C)C)[C@@H](C)O, synthetic analogue of human amylin; also called compound 83) [N^ε1-[(4S)-4-carboxy-4-(19-carboxynonadecanoylamino)butanoyl]-[Arg14,Arg17,Pro21,Pro27]-h-amylin]	49.7	146	140 nM	2.83 nM
K([γGlu-C20 diacid])CNTATCATQRLANFLRHSSPNFGAIPSSTNVGRNTY-NH2 (disulfide 2-7; N-terminus assumed; SMILES CC[C@H](C)[C@H](NC(=O)[C@H](C)NC(=O)CNC(=O)[C@H](Cc1ccccc1)NC(=O)[C@H](CC(N)=O)NC(=O)[C@@H]1CCCN1C(=O)[C@H](CO)NC(=O)[C@H](CO)NC(=O)[C@H](Cc1c[nH]cn1)NC(=O)[C@H](CCCNC(=N)N)NC(=O)[C@H](CC(C)C)NC(=O)[C@H](Cc1ccccc1)NC(=O)[C@H](CC(N)=O)NC(=O)[C@H](C)NC(=O)[C@H](CC(C)C)NC(=O)[C@H](CCCNC(=N)N)NC(=O)[C@H](CCC(N)=O)NC(=O)[C@@H](NC(=O)[C@H](C)NC(=O)[C@@H]1CSSC[C@H](NC(=O)[C@@H](N)CCCCNC(=O)CC[C@H](NC(=O)CCCCCCCCCCCCCCCCCCC(=O)O)C(=O)O)C(=O)N[C@@H](CC(N)=O)C(=O)N[C@@H]([C@@H](C)O)C(=O)N[C@@H](C)C(=O)N[C@@H]([C@@H](C)O)C(=O)N1)[C@@H](C)O)C(=O)N1CCC[C@H]1C(=O)N[C@@H](CO)C(=O)N[C@@H](CO)C(=O)N[C@H](C(=O)N[C@@H](CC(N)=O)C(=O)N[C@H](C(=O)NCC(=O)N[C@@H](CCCNC(=N)N)C(=O)N[C@@H](CC(N)=O)C(=O)N[C@H](C(=O)N[C@@H](Cc1ccc(O)cc1)C(N)=O)[C@@H](C)O)C(C)C)[C@@H](C)O, synthetic analogue of human amylin; also called compound 79) [N^ε1-[(4S)-4-carboxy-4-(19-carboxynonadecanoylamino)butanoyl]-[Arg17,Pro21,Pro27,Arg34]-h-amylin]	21.5	46.1	35.5 nM	1.65 nM
K([γGlu-C20 diacid])CNTATCATQRLANFLRHSSPNFGAIPSSTNVGHNTY-NH2 (disulfide 2-7; N-terminus assumed; SMILES CC[C@H](C)[C@H](NC(=O)[C@H](C)NC(=O)CNC(=O)[C@H](Cc1ccccc1)NC(=O)[C@H](CC(N)=O)NC(=O)[C@@H]1CCCN1C(=O)[C@H](CO)NC(=O)[C@H](CO)NC(=O)[C@H](Cc1c[nH]cn1)NC(=O)[C@H](CCCNC(=N)N)NC(=O)[C@H](CC(C)C)NC(=O)[C@H](Cc1ccccc1)NC(=O)[C@H](CC(N)=O)NC(=O)[C@H](C)NC(=O)[C@H](CC(C)C)NC(=O)[C@H](CCCNC(=N)N)NC(=O)[C@H](CCC(N)=O)NC(=O)[C@@H](NC(=O)[C@H](C)NC(=O)[C@@H]1CSSC[C@H](NC(=O)[C@@H](N)CCCCNC(=O)CC[C@H](NC(=O)CCCCCCCCCCCCCCCCCCC(=O)O)C(=O)O)C(=O)N[C@@H](CC(N)=O)C(=O)N[C@@H]([C@@H](C)O)C(=O)N[C@@H](C)C(=O)N[C@@H]([C@@H](C)O)C(=O)N1)[C@@H](C)O)C(=O)N1CCC[C@H]1C(=O)N[C@@H](CO)C(=O)N[C@@H](CO)C(=O)N[C@H](C(=O)N[C@@H](CC(N)=O)C(=O)N[C@H](C(=O)NCC(=O)N[C@@H](Cc1c[nH]cn1)C(=O)N[C@@H](CC(N)=O)C(=O)N[C@H](C(=O)N[C@@H](Cc1ccc(O)cc1)C(N)=O)[C@@H](C)O)C(C)C)[C@@H](C)O, synthetic analogue of human amylin; also called compound 77) [N^ε1-[(4S)-4-carboxy-4-(19-carboxynonadecanoylamino)butanoyl]-[Arg17,Pro21,Pro27,His34]-h-amylin]	137	118	205 nM	1.5 nM
